# Ends that are not written are not given here.
# Target: recombinant Drp1 (GST-Drp1) (human, UniProt O00429 1-736)
# Assay: cell-based or functional assay
# recombinant Drp1 (GST-Drp1), sequence (O00429 other isoform, or with tags, fused parts or gaps): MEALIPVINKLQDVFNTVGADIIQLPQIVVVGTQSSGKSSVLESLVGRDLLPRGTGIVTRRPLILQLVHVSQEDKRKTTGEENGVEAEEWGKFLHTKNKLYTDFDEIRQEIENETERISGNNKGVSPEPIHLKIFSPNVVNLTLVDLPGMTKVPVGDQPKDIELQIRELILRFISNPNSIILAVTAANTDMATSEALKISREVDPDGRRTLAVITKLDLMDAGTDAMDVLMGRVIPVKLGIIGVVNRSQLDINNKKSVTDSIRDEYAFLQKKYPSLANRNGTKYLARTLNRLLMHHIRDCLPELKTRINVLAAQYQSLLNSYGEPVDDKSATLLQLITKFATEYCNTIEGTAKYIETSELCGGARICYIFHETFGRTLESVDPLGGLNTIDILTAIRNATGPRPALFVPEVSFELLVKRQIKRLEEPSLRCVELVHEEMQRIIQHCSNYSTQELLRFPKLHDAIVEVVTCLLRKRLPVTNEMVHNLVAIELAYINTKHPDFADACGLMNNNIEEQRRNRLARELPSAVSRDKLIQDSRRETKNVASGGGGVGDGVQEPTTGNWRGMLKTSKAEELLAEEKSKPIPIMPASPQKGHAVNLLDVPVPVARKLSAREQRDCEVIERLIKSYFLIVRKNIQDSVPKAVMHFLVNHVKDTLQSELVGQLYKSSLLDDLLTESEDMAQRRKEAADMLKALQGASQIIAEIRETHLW
binder,measurement,value
RRRQRRKKRGYGGKLSAREQRD-NH2 [P109],GTPase activity of recombinant Drp1 (in vitro GTPase assay kit),40 % inhibition

# Reference: patent US20170312332A1 (Stanford University, published 2017)
